Laboratory results reported in US11653679B2, “High-purity steviol glycosides” (PureCircle Sdn Bhd, priority 2014, dated 2023).
Substitutions are numbered along the chain they refer to.

B1: UGT76G1var37: UGT76G1 variant, mutations E229A_L379G_I407V (protein, UniProt Q6VAB4 1-458, looked up, variant E229A L379G I407V)
UDP-glycosyltransferase 76G1: MENKTETTVRRRRRIILFPVPFQGHINPILQLANVLYSKGFSITIFHTNFNKPKTSNYPHFTFRFILDNDPQDERISNLPTHGPLAGMRIPIINEHGADELRRELELLMLASEEDEEVSCLITDALWYFAQSVADSLNLRRLVLMTSSLFNFHAHVSLPQFDELGYLDPDDKTRLEEQASGFPMLKVKDIKSAYSNWQILKEILGKMIKQTKASSGVIWNSFKELEESALETVIREIPAPSFLIPLPKHLTASSSSLLDHDRTVFQWLDQQPPSSVLYVSFGSTSEVDEKDFLEIARGLVDSKQSFLWVVRPGFVKGSTWVEPLPDGFLGERGRIVKWVPQQEVLAHGAIGAFWTHSGWNSTLESVCEGVPMIFSDFGGDQPLNARYMSDVLKVGVYLENGWERGEVANAIRRVMVDEEGEYIRQNARVLKQKADVSLMKGGSSYESLESLVSYISSL
B2: UGT76G1var40: UGT76G1 variant, mutations T263S_Q266E_S375R (protein, UniProt Q6VAB4 1-458, looked up, variant T263S Q266E S375R)
UDP-glycosyltransferase 76G1: B1 UDP-glycosyltransferase 76G1 with A229E, T263S, Q266E, S375R, G379L, V407I
B3: UGT76G1var43: UGT76G1 variant, mutations S241I_P272A_V279I (protein, UniProt Q6VAB4 1-458, looked up, variant S241I P272A V279I)
UDP-glycosyltransferase 76G1: B1 UDP-glycosyltransferase 76G1 with A229E, S241I, P272A, V279I, G379L, V407I
B4: UGT76G1var54: UGT76G1 variant, mutations E229A_T284L_R334K_Q342E (protein, UniProt Q6VAB4 1-458, looked up, variant E229A T284L R334K Q342E)
UDP-glycosyltransferase 76G1: B1 UDP-glycosyltransferase 76G1 with T284L, R334K, Q342E, G379L, V407I
B5: UGT76G1var57: UGT76G1 variant, mutations S241I_T263S_L379G_A385T (protein, UniProt Q6VAB4 1-458, looked up, variant S241I T263S L379G A385T)
UDP-glycosyltransferase 76G1: B1 UDP-glycosyltransferase 76G1 with A229E, S241I, T263S, A385T, V407I
B6: UGT76G1var2: UGT76G1 variant, mutations S274G_T284I_L379G (protein, UniProt Q6VAB4 1-458, looked up, variant S274G T284I L379G)
UDP-glycosyltransferase 76G1: B1 UDP-glycosyltransferase 76G1 with A229E, S274G, T284I, V407I
B7: UGT76G1var52: UGT76G1 variant, mutations D301N_I373L_F377C_I407V (protein, UniProt Q6VAB4 1-458, looked up, variant D301N I373L F377C I407V)
UDP-glycosyltransferase 76G1: B1 UDP-glycosyltransferase 76G1 with A229E, D301N, I373L, F377C, G379L
B8: UGT76G1var51: UGT76G1 variant, mutations K303G_S357C_S389E_V396F (protein, UniProt Q6VAB4 1-458, looked up, variant K303G S357C S389E V396F)
UDP-glycosyltransferase 76G1: B1 UDP-glycosyltransferase 76G1 with A229E, K303G, S357C, G379L, S389E, V396F, V407I
B9: UGT76G1var1: UGT76G1 variant, mutations E224A_F314S_R334K (protein, UniProt Q6VAB4 1-458, looked up, variant E224A F314S R334K)
UDP-glycosyltransferase 76G1: B1 UDP-glycosyltransferase 76G1 with E224A, A229E, F314S, R334K, G379L, V407I
B10: UGT76G1var42: UGT76G1 variant, mutations T263S_Q266S_R334H (protein, UniProt Q6VAB4 1-458, looked up, variant T263S Q266S R334H)
UDP-glycosyltransferase 76G1: B1 UDP-glycosyltransferase 76G1 with A229E, T263S, Q266S, R334H, G379L, V407I
B11: UGT76G1var49: UGT76G1 variant, mutations F41L_Q266E_T284I_Y397Q (protein, UniProt Q6VAB4 1-458, looked up, variant F41L Q266E T284I Y397Q)
UDP-glycosyltransferase 76G1: B1 UDP-glycosyltransferase 76G1 with F41L, A229E, Q266E, T284I, G379L, Y397Q, V407I
B12: UGT76G1var55: UGT76G1 variant, mutations I295M_Q342E_V366I_N409R (protein, UniProt Q6VAB4 1-458, looked up, variant I295M Q342E V366I N409R)
UDP-glycosyltransferase 76G1: B1 UDP-glycosyltransferase 76G1 with A229E, I295M, Q342E, V366I, G379L, V407I, N409R
B13: UGT76G1var53: UGT76G1 variant, mutations R334K_A352G_P382M_S389E (protein, UniProt Q6VAB4 1-458, looked up, variant R334K A352G P382M S389E)
UDP-glycosyltransferase 76G1: B1 UDP-glycosyltransferase 76G1 with A229E, R334K, A352G, G379L, P382M, S389E, V407I
B14: UGT76G1var38: UGT76G1 variant, mutations F41L_I295M_F377C (protein, UniProt Q6VAB4 1-458, looked up, variant F41L I295M F377C)
UDP-glycosyltransferase 76G1: B1 UDP-glycosyltransferase 76G1 with F41L, A229E, I295M, F377C, G379L, V407I
B15: UGT76G1var46: UGT76G1 variant, mutations F22L_Q266E_I295M (protein, UniProt Q6VAB4 1-458, looked up, variant F22L Q266E I295M)
UDP-glycosyltransferase 76G1: B1 UDP-glycosyltransferase 76G1 with F22L, A229E, Q266E, I295M, G379L, V407I
B16: UGT76G1var47: UGT76G1 variant, mutations E229A_T284I_S389E (protein, UniProt Q6VAB4 1-458, looked up, variant E229A T284I S389E)
UDP-glycosyltransferase 76G1: B1 UDP-glycosyltransferase 76G1 with T284I, G379L, S389E, V407I
B17: UGT76G1var39: UGT76G1 variant, mutations F22Y_F41L_V366I (protein, UniProt Q6VAB4 1-458, looked up, variant F22Y F41L V366I)
UDP-glycosyltransferase 76G1: B1 UDP-glycosyltransferase 76G1 with F22Y, F41L, A229E, V366I, G379L, V407I
B18: UGT76G1var56: UGT76G1 variant, mutations L246F_A352G_S357N_Q432E (protein, UniProt Q6VAB4 1-458, looked up, variant L246F A352G S357N Q432E)
UDP-glycosyltransferase 76G1: B1 UDP-glycosyltransferase 76G1 with A229E, L246F, A352G, S357N, G379L, V407I, Q432E
B19: UGT76G1var44: UGT76G1 variant, mutations I335V_S375R_I407V (protein, UniProt Q6VAB4 1-458, looked up, variant I335V S375R I407V)
UDP-glycosyltransferase 76G1: B1 UDP-glycosyltransferase 76G1 with A229E, I335V, S375R, G379L
B20: UGT76G1var48: UGT76G1 variant, mutations V394I_Y397E_Q432E (protein, UniProt Q6VAB4 1-458, looked up, variant V394I Y397E Q432E)
UDP-glycosyltransferase 76G1: B1 UDP-glycosyltransferase 76G1 with A229E, G379L, V394I, Y397E, V407I, Q432E
B21: UGT76G1var50: UGT76G1 variant, mutations F22Y_V310I_S375M_F377C (protein, UniProt Q6VAB4 1-458, looked up, variant F22Y V310I S375M F377C)
UDP-glycosyltransferase 76G1: B1 UDP-glycosyltransferase 76G1 with F22Y, A229E, V310I, S375M, F377C, G379L, V407I
B22: UGT76G1var41: UGT76G1 variant, mutations L246F_A385T_K393G (protein, UniProt Q6VAB4 1-458, looked up, variant L246F A385T K393G)
UDP-glycosyltransferase 76G1: B1 UDP-glycosyltransferase 76G1 with A229E, L246F, G379L, A385T, K393G, V407I
B23: UGT76G1var45: UGT76G1 variant, mutations V279I_D301N_S389E (protein, UniProt Q6VAB4 1-458, looked up, variant V279I D301N S389E)
UDP-glycosyltransferase 76G1: B1 UDP-glycosyltransferase 76G1 with A229E, V279I, D301N, G379L, S389E, V407I

Test: Directed evolution of UGT76G1, Rebaudioside D to Rebaudioside M, round 1 (Example 26)
Type: biochemical
Details: 100 μL fresh lysate, 0.5 mM Rebaudioside D, 30° C., pH 7.2
Method: Lysis was performed by addition of Bugbuster® Master mix (Novagen®) to the thawed cells and the lysate was recovered by centrifugation. Activity tests were performed with 100 μL of fresh lysate that was added to a solution of Rebaudioside D (final concentration 0.5 mM), MgCl2 (final concentration 3 mM) and UDP-Glucose (final concentration 2.5 mM) in 50 mM phosphate buffer pH 7.2.
The reaction was allowed to run at 30° C. and samples were taken after 2, 4, 7 and 24 h. to determine conversion and initial rate by HPLC (CAD detection) using the analytical method that was described above for the transformation of Rebaudioside D to Rebaudioside M. The results are depicted in the following table.

**Q.** Which initial rate does the source give for B1 here?
**A.** The initial rate was 2.8E+07 Reb M area/min.

**Q.** For B2, which initial rate is on record?
**A.** The initial rate was 3.3E+07 Reb M area/min.

**Q.** For B3, which initial rate is on record?
**A.** The initial rate was 9.4E+06 Reb M area/min.

**Q.** Which “conversion Reb D to Reb M after 24 h” value does the source give for B4 here?
**A.** Its value is 0.7%.

**Q.** What about the initial rate of the same molecule?
**A.** The initial rate was 4.3E+05 Reb M area/min.

**Q.** With B5 as the molecule, how does the “conversion Reb D to Reb M after 24 h” value read?
**A.** Its value is 0.8%.

**Q.** What about the initial rate of the same molecule?
**A.** The initial rate was 1.5E+05 Reb M area/min.

**Q.** Which initial rate does the source give for B6 here?
**A.** The initial rate was 4.7E+07 Reb M area/min.

**Q.** With B7 as the molecule, how does the initial rate read?
**A.** The initial rate was 4.6E+06 Reb M area/min.

**Q.** With B8 as the molecule, how does the initial rate read?
**A.** Its initial rate is 9.5E+06 Reb M area/min.

**Q.** For B9, which initial rate is on record?
**A.** Its initial rate is 5.5E+07 Reb M area/min.

**Q.** Which initial rate does the source give for B10 here?
**A.** The initial rate was 2.2E+07 Reb M area/min.

**Q.** What does the source list for B11?
**A.** conversion Reb D to Reb M after 24 h: 2.6%; initial rate: 1.1E+06 Reb M area/min

**Q.** Which “conversion Reb D to Reb M after 24 h” value does the source give for B12 here?
**A.** Its value is 1.0%.

**Q.** And the initial rate?
**A.** The initial rate was 2.2E+05 Reb M area/min.

**Q.** Which “conversion Reb D to Reb M after 24 h” value does the source give for B13 here?
**A.** The value was 9.3%.

**Q.** And the initial rate?
**A.** Its initial rate is 4.1E+06 Reb M area/min.

**Q.** Which results are given for B14?
**A.** conversion Reb D to Reb M after 24 h: 8.2%; initial rate: 3.7E+06 Reb M area/min

**Q.** Which “conversion Reb D to Reb M after 24 h” value does the source give for B15 here?
**A.** The value was 0.6%.

**Q.** What about the initial rate of the same molecule?
**A.** Its initial rate is 9.8E+05 Reb M area/min.

**Q.** Which results are given for B16?
**A.** conversion Reb D to Reb M after 24 h: 4.8%; initial rate: 2.7E+06 Reb M area/min

**Q.** For B17, which “conversion Reb D to Reb M after 24 h” value is on record?
**A.** The value was 7.2%.

**Q.** What about the initial rate of the same molecule?
**A.** The initial rate was 3.3E+06 Reb M area/min.

**Q.** Which results are given for B18?
**A.** conversion Reb D to Reb M after 24 h: 0.4%; initial rate: 4.1E+04 Reb M area/min

**Q.** For B19, which initial rate is on record?
**A.** The initial rate was 2.3E+07 Reb M area/min.

**Q.** With B20 as the molecule, how does the initial rate read?
**A.** Its initial rate is 3.8E+07 Reb M area/min.

**Q.** For B21, which “conversion Reb D to Reb M after 24 h” value is on record?
**A.** Its value is 1.9%.

**Q.** And the initial rate?
**A.** The initial rate was 7.9E+05 Reb M area/min.

**Q.** What does the source list for B22?
**A.** conversion Reb D to Reb M after 24 h: 0.8%; initial rate: 1.4E+06 Reb M area/min

**Q.** With B23 as the molecule, how does the initial rate read?
**A.** Its initial rate is 2.3E+07 Reb M area/min.
